Results reported in PMC3390394, “Characterisation of the First Enzymes Committed to Lysine Biosynthesis in Arabidopsis thaliana” (PLoS ONE, 2012).
Where “and” joins values, the source holds several entries; their conditions need not be identical. Equal entries are not always repeated.

Legend:
[1] = target: the molecule itself; test: SEC-MALS; Malvern P3000 column with Viscotek TDA (refractive index, low angle and right angle light scattering); 100 µL of 1.0 mg/mL; 20 mM Tris-HCl, 150 mM NaCl, pH 8.0; 28°C
[2] = target: the molecule itself; test: small angle X-ray scattering (SAXS); in-line gel filtration (Superdex 200 5/150), 20 mM Tris.HCl, 150 mM NaCl, pH 8.0, 27°C; initial concentration 2-5 mg/mL; volume and molecular weight by AUTOPOROD, comparison with crystal structures by CRYSOL

B1: Arabidopsis thaliana dihydrodipicolinate reductase 2 (At-DHDPR2) (enzyme, UniProt Q8LB01 54-349, looked up)
chain: LSMGKSETFEEAGNSVAPGNGISIMVNGCSGKMGKAVIKAADSAGVNIVPTSFGSVEEAGQTVEVCGKEILVHGPTEREKVLSSVFEKYPELIVVDYTIPSAVNDNAELYGKVGVPFVMGTTGGDRTRLYKTVEESKIYAVISPQMGKQVVAFLAAMEIMSEQFPGAFAGYSLEVMESHQASKLDASGTAKAVISCFQKLGVSYDMDQIQLIRDPKQQIEVVGVPEEHVSGHAFHLYHLTSPDKTVSFEFQHNVCGRSIYAEGTVDAVLFLAKKIRSKAEKRIYNMIDVLREGNMR
notes: Dihydrodipicolinate reductase 2 (At-DHDPR2), Arabidopsis thaliana, plasmid encoding AT3G59890 from TAIR; primers excluded the chloroplast transit peptide as identified by chloroP; residues may remain after TEV cleavage; also called AT3G59890; source: E. coli BL21(DE3) Star, purified (His-Trap, TEV cleavage, second His-trap)
stoichiometry N [1]: 2 and 4

B2: Escherichia coli dihydrodipicolinate reductase (Ec-DHDPR) (enzyme, E. coli)
chain: MHDANIRVAIAGAGGRMGRQLIQAALALEGVQLGAALEREGSSLLGSDAGELAGAGKTGVTVQSSLDAVKDDFDVFIDFTRPEGTLNHLAFCRQHGKGMVIGTTGFDEAGKQAIRDAAADIAIVFAANFSVGVNVMLKLLEKAAKVMGDYTDIEIIEAHHRHKVDAPSGTALAMGEAIAHALDKDLKDCAVYSREGHTGERVPGTIGFATVRAGDIVGEHTAMFADIGERLEITHKASSRMTFANGAVRSALWLSGKESGLFDMRDVLDLNNL
notes: Dihydrodipicolinate reductase (DapB), Escherichia coli; construct not described; theoretical mass of the tetramer printed as 114,800 Da
stoichiometry N [2]: 4

B3: Thermotoga maritima dihydrodipicolinate reductase (Tm-DHDPR) (enzyme, T. maritima)
chain: MKYGIVGYSGRMGQEIQKVFSEKGHELVLKVDVNGVEELDSPDVVIDFSSPEALPKTVDLCKKYRAGLVLGTTALKEEHLQMLRELSKEVPVVQAYNFSIGINVLKRFLSELVKVLEDWDVEIVETHHRFKKDAPSGTAILLESALGKSVPIHSLRVGGVPGDHVVVFGNIGETIEIKHRAISRTVFAIGALKAAEFLVGKDPGMYSFEEVIFGGE
notes: Dihydrodipicolinate reductase (DapB), Thermotoga maritima; construct not described; theoretical mass of the tetramer printed as 99,380 Da
stoichiometry N [2]: 4
